Laboratory results from the DeepSol protein solubility set.

Assay: soluble on expression in E. coli; label from the status in PepcDB or PDB records

Sequence | soluble on expression in E. coli
MSLQNTLGHRLVVGERQLLRFPAQQRSAAGDRLHAPSVYRRACIASLRSRQACYRHARRRCRQQEGAAMTGINRRELLRGMLASGVRAALPAGAAGALLPGSADAAPAAAKDATPLAPLGDASLAPRERLLFDFGWRFHPGHASDPSRDFEFGTFQRTFAKAGKDTATAAQLAFDDSNWQQVDLPHDWAVTLPFRPEPISASMTEEDPAAAHGYKALGTSFPENSVGWYRRMLQIPASDLGKRICLVFDGVFRDCVVFCNGHIVGRNASGYCGFEVDLSEVLDYGKPNLIVVRVDATLGEGWFYEGAGIYRHLWLQKTDPLHVPQHGVFVRSSVQGDTATAQLSTEVRNDGTASRQCVVQARITAPYGRIVAQAASAAVTVAPGQVQVVEQTVPLGQAALWSIDTPQLYTLTTSVHSAGVAVDALVTPFGVRSIAFDAQRGFLLNGAPLKLHGTNNHQDHAGVGTAIPDALHAWRLRQLKSMGCNAYRSSHNPATPELLALCDRLGMFVIEETRRMSTDPEAMAELETMVRRGRNHPSVILWSLGNEEPQQVTERGARIVTRMQQRVRQLDPTRPTTFAMDKGFGDGVGQVVDVVGFNYRTSQMDGFHAQYPNIPIYGSETGSTVSVRGNYQRDDTRGYTRAYDTDHPWWASTAEAWWSYVAQRPYIAGGFIWTGFDYRGEPTPYNRWPNVGSQFGVLDSCGFPKDNYWYYRAQWTSEPVLHLFPHWNWDGLLQPDDKGRVEVWCHSNLEAVELLVNGVSQGLQQVPAYGHVEWRVAYAPGVIEARGYRGGKLVLTERRETVGKPAAIRLSCDRSALRADAEDVAVVKVEIVDAQGRLVPNADHLVHLVLRGPARLIGVGNGDPSSHEDDKAPQRKAFNGLCMALLRSTRSSGQILLQATAPGLTSAALHLQAATSAEGHHHHHH | soluble
REVYVLVIGETARACNFGLYGYERNTTPLLDKMEGVVTFTDVLTQSNTTHKSVPMLLSAASAEDYDCLYRQKGIITAFKEAGFHTAFFSNQLPNHSFIDFLGMEADDWKFIKKDAPKGANISDDELLFLVEKELKAGHQKLFIVLHAYGSHFNYKERYPESMSVFKPDNLTDAKYENKEYLMNAYDNTIRYTDGFLASLITLLQKTNSFSAMLYTSDHGEDIFDDNRKLFLHASPVPSYYQLHVPFLIWLSKTYREKNVEVHEAILQNREKPVAGNASVFHTMLNLAGVQTPYRADSLSVAN | not soluble
MQTLGFRRPNQVREAVYRHLKDLLLSGRFSPGERLSEPLLAQELGVSRTPVREALMRLAEEGLVELVPGKGARVRVFAPEEVEEVYGVRALLEGEAAREAALRATPWELAELERLLQAIDEAPREDYPEQMRRDLEFHRALVRLSGNRTLYRLYEDLLATLALARSALPTLSQDEATRREHRAILEALLRRDPEEARRAVEAHVFRFRDLVVGRLREEGG | soluble
MDRFHATSADCCISYTPRSIPCSLLESYFETNSECSKPGVIFLTKKGRRFCANPSDKQVQVCMRMLKLDTRIKTRKN | soluble
MRKEGYKSGFVAIIGRPNVGKSTFLNRVIGQKIAIMSDKPQTTRNKIQGVYTDDDAQIIFIDTPGVHKPKHKLGDFMMKVALNALREVDLILFMVNAEEGFGRGEAFIIERLKEVDTPVFLVINKIDRVHPDELLPLIDRYKDLYPFAEIVPISALEGNNVDRLLEQIKERLPEGPQYYPPDQITDHPEQFIIAELIREKALHLTREEVPHSIAVVVERIERREGSPTVYISAVIVVERDSQKGIIIGKQGRMLKEIGQRARADIEALLGSRVFLELWVKVQKDWRNRLSQLRDFGFREDEY | soluble
MHSFLQFLRDDNPGSLEDHLNFVPSDDLKYELGMLLSSRPLYLETDELPFVSSSVLNYGIKSSVFVVSAGEHSDSVNDEISSRILMMLQRYESRLEEPVVEYLSSDDNYSFFSVTALFFMDMVRLCIKWDKNSGEFSLDE | not soluble
MGSDKIHHHHHHENLYFQGMYPDLVHLGGADKYFEEILEIVNKIKLFGDFSNEEVRYLCSYMQCYAAPRDCQLLTEGDPGDYLLLILTGEVNVIKDIPNKGIQTIAKVGAGAIIGEMSMIDGMPRSASCVASLPTDFAVLSRDALYQLLANMPKLGNKVLIRLLQLLTARFRESYDRILPKTLGELI | soluble
MGSDKIHHHHHHMATENALYEILTEKIKQDTLVLPTLPEVALKVRSAADDPDINLNQMSDIIAHDPALSLGMLKVANNALMGRSIKVETVPQAVTRIGLIQIKSIATAMAIEQVFVSNNDVVAMYMNKAWVKTIDIASVAISLMNIYLKENKHTSLSLDTITLASLIHNIGVLPILTEAENHPDVFANPTFLQQAIIKLSGRVGGAITRKWGFSEEFTLLAESWSDLTILPSEVHYLDFIRAGAIYHNVFKNESTKVALLNNYTKKGILPEVDYMDSDEFKGMCEDVRAMFI | not soluble
HRSGGFPVYKNTKVTYFPNGQSKFEEMKKQLLKAEKFIFLEYFIIAEGLMWGEILSILEQKVQEGVEVRVMYDGMLELSTLSFDYAKRLEKIGIKAKVFSPITPFVSTYYNYRDHRKILVIDNKVAFNGGINLADEYINQIERFGYWKDTAVMLEGEGVASFTLMFLQMWSTTNKDYEFAPYLTQNFHEIVANGYVIPYSDSPLDHEKVGENV | not soluble
MSGSDDDATQISREDEELAYEIYFWIVRCICEKGVVKISELRKIYQSTVVKDRSVQFRPLPGVLKAVNENLLHWQGWNAVIQDDRLTYVNVNGDAPNEVRASETERTLGLLKNVLMYVFVATKPQSKHPGVAQEDLMSYMEASMSTHSDRKLSLDHMEFLKKLIAPNARSEFIKKGYLAFTKSVNENDEEVFRYEWGPAARQTVDPLALVQTFQQLTGMKPEMLKEQTERANELKAEQVAAVTRGGVLRTRGQ | not soluble
MGSDKIHHHHHHMNLKLDHIIHYLHQLESFKFPGEILELQNGGRHHHLGTFNQIAPIKNSYIELLDVENESKLSNIAKTEEGRVSFATKIVQDHFKQGFKGICFRTKDINQVKSTLENRGVDVIGPIDMERENKKGHQIRWRLLYIANPDYTVKPPFFIEWDNNKKQNLSQIHNFNLSSFKIKEVIITSTQRETTVSLWKEWYNLKIVNETATSTDLKLETDEVIYKIEDGKDSGFHTLIMTDINATAPYSIFIRGAKYRFEPPN | not soluble
MSSGNRQAPMPPPKPRNLGRGQFYQQGGYLTPQDSDTDSGISADCDQGSPRAAAGFGGTGFNGTVNGQQVNSQRRIPDLPPGAYQNYRSHSSADYLTPNSARKIASYSTTPRRLPLQPQQQAPATATKAKYRVRFADEVDSGASTSSGTSSTHISPRNDPQEMLMNSAVGAPQITSTFQQPASYMQNSSDAQYKMNKIEYPPVSRTPPVACSSRTGTLQRTPNRRLPISSTPQPQPTYADQMQSLPEPPPYTIAMQRLRSVEQQPQESFRDAFIRKSVNDTLQRRYRQRSSSLPRGNKSYYEGIDIYDAQPPIRPLPQQQTSLMTVANQLPGSLDNLHINNLNMRRRKLPTAPLMGSSCQLHLDNSDELTAYRALQFQMMQDELQRQQPPPQSFERPTLLRRTNMPQQQSFNIPHITTTGPPPPAMGLSVPVQYDQGEYGTQSVRAQLVALDQRGFRRVLVEKMMPGPFGFYIATGVVAGQRAGIFISRVSLPSLSPMLTVGDEIIYVDEEYVKGRSLEYVQSLRIFEFQTELITEEPPHKQVIFM | not soluble
MGSDKIHHHHHHMRLNLRQIEVFRAIMLTGSISGAAKLLHVSQPAVSRLISYAEQRLGLALFERIKGRLYPTPEAQRLFVEVNAVYQGVQRVNEIAEDLIENRMGHLRIACSPNLGQSLLPRAIAAFYERLPDVRIILHTMIPNVLLQAVLTQQVELGIAFLQDTHPNVESQLLYENRMVAAVPASHPFARRKTLAVRDLANQPLIGYGSDIPLGQLVRRLFSDESLVPQVKVEVQQAHVACALAQAGTGIALIDELTVAGPVWPQIVVKPIVPTLAAPVSVLHPVPTPLSRLAHAFIDTLHSLAAHA | not soluble
KNYDLSDLPGPPSKPQVTDVTKNSVTLSWQPGTPGTLPASAYIIEAFSQSVSNSWQTVANHVKTTLYTVRGLRPNTIYLFMVRAINPQGLSDPSPMSDPVRTQD | soluble
MSLCRVLSVKPSSYYDWINRDISSQQIHRNQSELLIKAAHSETKERYGFERLHAHLNEQGYDISPYMVRNIKEEHGIKCRRHKRFKVTTDSNHNKLIYDNVLDQQFDVNRPNEAWVSDITYIWTTEGWLYLAGVKDLYTKELVGYAINKRMTADLVCKALNMAIKNKRPSKGLIVHSDRGGQYCSHAYHKIIKQHQFKGSMSGKGNCYDNAPIESFWGVLKNELVYHQDYKTRFAAITDIIRYIELYYNQTRIQKGLGYKSPRQVWFDYYRQAAEGHHHHHH | soluble
MEKFVLSLDEGTTSARAIIFDRESNIHGIGQYEFPQHYPRPGWVEHNPEEIWDAQLRAIKDAIQSARIEPNQIAAIGVTNQRETTLVWDKDGKPLYNAIVWQCRRTAEMVEEIKREYGTMIKEKTGLVPDAYFSASKLKWLLDNVPGLREKAEKGEVMFGTVDTFLIYRLTGEHVTDYSNASRTMLFNIKKLDWDDELLELFDIPESVLPEVRESSEVYGYTKKELLGAEIPVSGDAGDQQAALFGQAAFEAGMVKATYGTGSFILVNTDKMVLYSDNLLTTIAWGLNGRVSYALEGSIFVTGAAVQWLRDGIKIIKHASETEELATKLESNEGVYFVPAFVGLGAPYWDQFARGIIIGITRGTGREHLARATLEAIAYLTRDVVDEMEKLVQIKELRVDGGATANDFLMQFQADILNRKVIRPVVKETTALGAAYLAGLAVDYWADTREIAELWKAERIFEPKMDEKTRERLYKGWKEAVKRAMGWAKVVDSAKSN | soluble
GMTTPPARTAKQRIQDTLNRLELDVDAWVSTAGADGGAPYLVPLSYLWDGETFLVATPAASPTGRNLSETGRVRLGIGPTRDLVLVEGTALPLEPAGLPDGVGDTFAEKTGFDPRRLTTSYLYFRISPRRVQAWREANELSGRELMRDGEWLVTD | soluble
MGSDKIHHHHHHTNEDIVKNNVNQPEKVKGNLSLVISSTSNSSRAADNEESGVTDPGIEGESTVTDAVIILNRLDENGNLTKEEFGGYLTKAQLNETTASGETIYNPFFTLANSGWYKVLVVLNPTESIEAIANSQQSTDKSKYEQIAESSYTTTGDITIAAAGQFMMVNKKEIKVDVLSNNYEDPTIKEVEVERVVSKINYVIAKPNNLYPLTVQTTDYAIAETTSGYYIYPDNKAVRLTGLHKAKNLDNDNSDVWIHEGTDGTDRRAFIKTEKTYGQTGEHIFTLLEPFPKFEYYTTSTDGELDWTVKLDKYALVNLSNSVYTARHLTDASWENCKHSASCVFLSKL | not soluble
MAHHHHHHMDQSRHKRTARHQYLGARTKITLKLQLTRIQHRGFHVHVHSRTTPLDRQAHEDALQQRDVECLLWRVKMQQIQQNRSGEGHVDKAQTTHTGIRIVHGADPATVNAAGLRVLRIGERERPKTVRNRSWQTRVTVAASSTHALTAADAARPRSEAHGVHSARATVQHRHGRPNIEVDSVIRHRRAS | not soluble
MSLTQAATRPTNDAGQDGGNNSDILVVARQQVLQRGEGLNQDQVLAVLQLPDDRLEELLALAHEVRMRWCGPEVEVEGIISLKTGGCPEDCHFCSQSGLFASPVRSAWLDIPSLVEAAKQTAKSGATEFCIVAAVRGPDERLMAQVAAGIEAIRNEVEINIACSLGMLTAEQVDQLAARGVHRYNHNLETARSFFANVVTTHTWEERWQTLSMVRDAGMEVCCGGILGMGETLQQRAEFAAELAELGPDEVPLNFLNPRPGTPFADLEVMPVGDALKAVAAFRLALPRTMLRFAGGREITLGDLGAKRGILGGINAVIVGNYLTTLGRPAEADLELLDELQMPLKALNASLEGHHHHHH | soluble
MAHHHHHHMEDEKVGTANNDEKVTMSMPEEYMPKNISEILIGAVEEDRTYALKGDEPCDSYIKLGEIVHGTNEKTTQFTFPKNKVLCVQLEAINGNGYLWALLGVHKEKPQINPEEFPRKKITKSFFTNEISVTQPKAIQKNTSNNGGDISPNSSGYGKPRGSEHLGGFVGGASTLQSMVKAHKAGTFYIVYSYYRPFDPTASANTKILQLTVS | soluble
